The record followed here is paper PMC7895464 (Journal of molecular biology, 2020).

For test [1], the target named is ClpS*^fl (fluorescein-labelled variant of ClpS containing one cysteine) (E. coli) (UniProt P0A8Q6). Briefly: fluorescence polarisation.
Test [2] has as its target T1, ClpA (E. coli, UniProt P0ABH9 1-758).
T1 sequence (looked up): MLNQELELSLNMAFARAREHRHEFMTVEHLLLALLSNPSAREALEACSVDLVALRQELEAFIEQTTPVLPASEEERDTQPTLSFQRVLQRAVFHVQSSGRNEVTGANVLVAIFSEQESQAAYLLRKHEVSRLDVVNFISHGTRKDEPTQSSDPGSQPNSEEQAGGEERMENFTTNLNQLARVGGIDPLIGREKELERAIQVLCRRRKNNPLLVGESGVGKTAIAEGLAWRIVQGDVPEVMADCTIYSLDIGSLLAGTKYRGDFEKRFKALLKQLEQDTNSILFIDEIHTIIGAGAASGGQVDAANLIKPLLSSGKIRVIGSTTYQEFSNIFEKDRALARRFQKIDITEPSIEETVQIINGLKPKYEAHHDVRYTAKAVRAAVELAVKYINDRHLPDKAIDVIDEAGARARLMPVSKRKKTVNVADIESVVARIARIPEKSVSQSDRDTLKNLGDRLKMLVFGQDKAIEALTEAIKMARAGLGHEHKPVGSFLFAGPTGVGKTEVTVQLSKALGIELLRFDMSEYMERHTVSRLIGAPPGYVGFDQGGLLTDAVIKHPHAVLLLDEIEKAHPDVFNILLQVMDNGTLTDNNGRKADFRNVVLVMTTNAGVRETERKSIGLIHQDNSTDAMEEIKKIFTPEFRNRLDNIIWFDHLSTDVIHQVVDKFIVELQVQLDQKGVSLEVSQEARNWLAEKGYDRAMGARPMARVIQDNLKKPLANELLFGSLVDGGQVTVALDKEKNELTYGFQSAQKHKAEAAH
Kind of test: fluorescence polarisation. For orientation: Fluorescence polarisation rises when a labelled molecule tumbles more slowly, as on binding a larger partner.

Test [3] addresses T1, ClpA.
Test [4] addresses T1, ClpA. Briefly: fluorescence polarisation. This is another data set of the same source.
In test [5] the target is T2, ClpA-ClpS complex (ClpAS; printed as ClpAPS in the text) (E. coli, UniProt P0ABH9 1-758; P0A8Q6 2-106).
T2 sequence 1: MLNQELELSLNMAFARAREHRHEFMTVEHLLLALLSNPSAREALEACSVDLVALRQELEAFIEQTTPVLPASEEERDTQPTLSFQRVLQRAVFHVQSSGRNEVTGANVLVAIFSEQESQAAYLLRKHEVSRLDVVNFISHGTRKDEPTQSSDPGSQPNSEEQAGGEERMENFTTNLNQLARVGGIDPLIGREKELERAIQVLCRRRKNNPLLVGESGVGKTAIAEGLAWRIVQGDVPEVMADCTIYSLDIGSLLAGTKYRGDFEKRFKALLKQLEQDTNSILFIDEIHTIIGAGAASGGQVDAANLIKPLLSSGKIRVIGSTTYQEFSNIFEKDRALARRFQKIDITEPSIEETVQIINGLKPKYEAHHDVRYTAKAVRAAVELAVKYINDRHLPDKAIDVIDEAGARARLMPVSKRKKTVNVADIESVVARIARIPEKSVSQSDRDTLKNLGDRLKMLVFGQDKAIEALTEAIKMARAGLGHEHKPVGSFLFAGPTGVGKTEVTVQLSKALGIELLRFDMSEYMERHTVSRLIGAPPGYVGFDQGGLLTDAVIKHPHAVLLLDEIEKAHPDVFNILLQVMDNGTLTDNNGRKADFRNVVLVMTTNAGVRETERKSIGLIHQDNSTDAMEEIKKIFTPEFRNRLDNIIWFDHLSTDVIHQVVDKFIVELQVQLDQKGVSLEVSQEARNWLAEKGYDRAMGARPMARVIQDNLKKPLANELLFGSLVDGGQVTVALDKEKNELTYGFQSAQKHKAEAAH
T2 sequence 2: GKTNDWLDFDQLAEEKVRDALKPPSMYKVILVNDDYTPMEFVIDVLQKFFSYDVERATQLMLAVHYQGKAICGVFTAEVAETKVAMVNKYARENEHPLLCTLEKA
Briefly: fluorescence polarisation.

Where two headings read alike, the source gives them in different places.

B1: ClpA (enzyme)
chain: MLNQELELSLNMAFARAREHRHEFMTVEHLLLALLSNPSAREALEACSVDLVALRQELEAFIEQTTPVLPASEEERDTQPTLSFQRVLQRAVFHVQSSGRNEVTGANVLVAIFSEQESQAAYLLRKHEVSRLDVVNFISHGTRKDEPTQSSDPGSQPNSEEQAGGEERMENFTTNLNQLARVGGIDPLIGREKELERAIQVLCRRRKNNPLLVGESGVGKTAIAEGLAWRIVQGDVPEVMADCTIYSLDIGSLLAGTKYRGDFEKRFKALLKQLEQDTNSILFIDEIHTIIGAGAASGGQVDAANLIKPLLSSGKIRVIGSTTYQEFSNIFEKDRALARRFQKIDITEPSIEETVQIINGLKPKYEAHHDVRYTAKAVRAAVELAVKYINDRHLPDKAIDVIDEAGARARLMPVSKRKKTVNVADIESVVARIARIPEKSVSQSDRDTLKNLGDRLKMLVFGQDKAIEALTEAIKMARAGLGHEHKPVGSFLFAGPTGVGKTEVTVQLSKALGIELLRFDMSEYMERHTVSRLIGAPPGYVGFDQGGLLTDAVIKHPHAVLLLDEIEKAHPDVFNILLQVMDNGTLTDNNGRKADFRNVVLVMTTNAGVRETERKSIGLIHQDNSTDAMEEIKKIFTPEFRNRLDNIIWFDHLSTDVIHQVVDKFIVELQVQLDQKGVSLEVSQEARNWLAEKGYDRAMGARPMARVIQDNLKKPLANELLFGSLVDGGQVTVALDKEKNELTYGFQSAQKHKAEAAH
Consider B1, for which the Kd (in general, the free concentration of one partner at which half of the binding sites on the other are occupied at equilibrium, for simple one-to-one binding) in test [1] came to 160 nM.

B2: ClpS (natural protein, E. coli)
chain: GKTNDWLDFDQLAEEKVRDALKPPSMYKVILVNDDYTPMEFVIDVLQKFFSYDVERATQLMLAVHYQGKAICGVFTAEVAETKVAMVNKYARENEHPLLCTLEKA
As to B2, the binding result with ClpA [2] is reported as “binds”.

B3: ClpS^ΔN17 (domain or fragment, E. coli, UniProt P0A8Q6 18-106, looked up)
chain: VRDALKPPSMYKVILVNDDYTPMEFVIDVLQKFFSYDVERATQLMLAVHYQGKAICGVFTAEVAETKVAMVNKYARENEHPLLCTLEKA
As for B3, the Kd with ClpA [3] is roughly 160 nM.

B4: λ*^fl-ssrA (fluorescein-labelled ssrA-tagged DNA-binding domain of λ repressor, λ(1-93)^A21C-ssrA) (domain or fragment, bacteriophage λ | E. coli)
chain: MSTKKKPLTQEQLEDARRLKCIYEKKKNELGLSQESVADKMGMGQSGVGALFNGINALNAYNAALLAKILKVSVEEFSPSIAREIYEMYEAVSAANDENYALAA
modifications: fluorescein (fluorescein-5-maleimide) on the single cysteine
On to B4, for which the Kd with ClpA [4] was 740 nM; in test [5], roughly 8000 nM.
